Test results reported in publication PMC10046861, “Linker Length Drives Heterogeneity of Multivalent Complexes of Hub Protein LC8 and Transcription Factor ASCIZ” (Biomolecules, 2023).
Where a chain is given by its changes, count along the chain named. Where “and” joins values, the source holds several entries; their conditions need not be identical. Identical values can stand only once.

B1: QT3 (QT2–4 single-site variant, only motif QT3 intact) (domain or fragment)
chain: EVLAPLLRDIEAAAPDTRGDIGTMTDDFPEEQEPVAVGSHFHAYSETEPMFDLQTSAHMYAAACDDLFEEL
modifications: Anchor positions are not printed. They were deduced from 8-residue motifs ending in the anchor, linkers of 3 and 30 residues, and 9 residues after QT4; the wild-type letters must match the entry …
B2: Drosophila ASCIZ QT2–4 (residues 271–341) (domain or fragment, UniProt Q9VZU1 271-341, looked up)
chain: B1 chain with A12T, A13Q, A14T, A61T, A62Q, A63T
notes: also called wildtype QT2–4; intact QT2–4 construct; source: E. coli Rosetta (DE3), purified under denaturing conditions (TALON, anion exchange, gel filtration)
B3: Drosophila LC8 (natural protein)
chain: MSDRKAVIKNADMSEEMQQDAVDCATQALEKYNIEKDIAAYIKKEFDKKYNPTWHCIVGRNFGSYVTHETRHFIYFYLGQVAILLFKSG
notes: LC8 hub protein (dynein light chain LC8) of Drosophila; folds as a homodimer; tag cleaved by TEV protease; also called LC8 dimer; source: E. coli Rosetta (DE3), purified (TALON, anion exchange, Superdex 75 gel filtration)

Columns and labels:
[1] = target: QT2,3 (QT2–4 double-site variant, motifs QT2 and QT3 intact) (Drosophila) (UniProt Q9VZU1); assay: native MS; native ESI-MS; LC8 mixed with double-site QT variant at 2:1 LC8:QT, overnight at 4 °C; 25 µM total protein and dilutions to 500 nM; 200 mM ammonium acetate, pH 7.4; settings: scale: LC8 chains per variant chain
[2] = target: QT2,4 (QT2–4 double-site variant, motifs QT2 and QT4 intact) (Drosophila) (UniProt Q9VZU1); assay: as above; settings: scale: LC8 chains per variant chain
[3] = target: QT3,4 (QT2–4 double-site variant, motifs QT3 and QT4 intact) (Drosophila) (UniProt Q9VZU1); assay: as above; settings: scale: LC8 chains per variant chain
[4] = target: QT2,3 (QT2–4 double-site variant, motifs QT2 and QT3 intact) (Drosophila) (UniProt Q9VZU1); assay: ITC; LC8 (400–500 µM) in the syringe titrated into QT variant (20–50 µM) in the cell; 25 °C; 50 mM sodium phosphate, 50 mM NaCl, 1 mM sodium azide, 5 mM β-mercaptoethanol, pH 7.5; single set of sites fit, for double-site variants also sequential binding sites (SBS) and two sets of sites (TSS) fits
[5] = target: QT3,4 (QT2–4 double-site variant, motifs QT3 and QT4 intact) (Drosophila) (UniProt Q9VZU1); assay: as above
Drosophila LC8 [6] = target: B3; assay: as above; settings: both partners purified
Drosophila LC8 [7] = target: B3; assay: negative-stain electron microscopy; images of a QT2–4/LC8 mixture; strings of LC8 dimers counted in 50 images; settings: both partners purified
[8] = target: the molecule itself; assay: native MS; native ESI-MS of the individual proteins (25 µM; dilution series); 200 mM ammonium acetate, pH 7.4
[9] = target: B2; assay: SEC-MALS; 90 µM QT2–4 or QT4–6 mixed with 300 µM LC8 (1:3.3); Superdex200 10/300 GL, room temperature; 50 mM sodium phosphate, 0.4 M NaCl, 1 mM NaN3, 5 mM β-mercaptoethanol, pH 7.5; settings: both partners purified
[10] = target: QT2 (QT2–4 single-site variant, only motif QT2 intact) (Drosophila) (UniProt Q9VZU1); assay: ITC; LC8 (400–500 µM) in the syringe titrated into QT variant (20–50 µM) in the cell; 25 °C; 50 mM sodium phosphate, 50 mM NaCl, 1 mM sodium azide, 5 mM β-mercaptoethanol, pH 7.5; single set of sites fit, for double-site variants also sequential binding sites (SBS) and two sets of sites (TSS) fits
[11] = target: QT2,4 (QT2–4 double-site variant, motifs QT2 and QT4 intact) (Drosophila) (UniProt Q9VZU1); assay: as above
[12] = target: QT4 (QT2–4 single-site variant, only motif QT4 intact) (Drosophila) (UniProt Q9VZU1); assay: as above

**Q.** Which stoichiometry N [1] does the source give for “Drosophila LC8 (from UniProt Q24117 1-89) (natural protein)” here?
**A.** Its stoichiometry N is 2 (2×) and 4 and 3.

**Q.** What about the stoichiometry N [2] of the same molecule?
**A.** Its stoichiometry N is 2 (2×) and 4 and 3.

**Q.** And the stoichiometry N [3]?
**A.** The stoichiometry N was 2 (2×) and 4 and 3.

**Q.** And the fold stabilisation of the stronger site (QT2) against its single-site variant, two sets of sites fit [4]?
**A.** The fold stabilisation of the stronger site (QT2) against its single-site variant, two sets of sites fit was 7 fold.

**Q.** And the fold stabilisation of the weaker site (QT3) against its single-site variant, two sets of sites fit [4]?
**A.** The fold stabilisation of the weaker site (QT3) against its single-site variant, two sets of sites fit was 2 fold.

**Q.** What about the N of site QT3, two sets of sites fit [5] of the same molecule?
**A.** The N of site QT3, two sets of sites fit was 0.2.

**Q.** For B1, which Kd (Drosophila LC8 [6]) is on record?
**A.** The Kd was 36 µM.

**Q.** Does B2 bind (Drosophila LC8 [7])?
**A.** Result: binds

**Q.** With B3 as the molecule, how does the “stoichiometry N” value [8] read?
**A.** Its value is 2.

**Q.** What about the “stoichiometry N” value [9] of the same molecule?
**A.** Its value is 1 LC8 chains per QT2–4 chain (2 QT2–4 chains, 2 LC8 chains).

**Q.** What about the Kd [10] of the same molecule?
**A.** Its Kd is 9.3 µM.

**Q.** What about the dH [10] of the same molecule?
**A.** The dH was -10.7 kcal/mol.

**Q.** And the N of site QT4, two sets of sites fit [11]?
**A.** The N of site QT4, two sets of sites fit was 0.6.

**Q.** And the fold increase in affinity of site QT4 against the single-site variant QT4, sequential binding sites fit [11]?
**A.** Its fold increase in affinity of site QT4 against the single-site variant QT4, sequential binding sites fit is 5 fold.

**Q.** What about the Kd of the second (weaker) site, QT3, sequential binding sites fit [5] of the same molecule?
**A.** Its Kd of the second (weaker) site, QT3, sequential binding sites fit is 40 µM.

**Q.** And the Kd of the second (weaker) site, QT3, two sets of sites fit [5]?
**A.** The Kd of the second (weaker) site, QT3, two sets of sites fit was 25.7 µM.

**Q.** And the Kd [12]?
**A.** The Kd was 15 µM.

**Q.** And the dH [12]?
**A.** Its dH is -16.1 kcal/mol.
